Several values for one entry are separate records, joined by “and”; a condition that tells them apart may be missing. Equal entries are not always repeated.
Experiments:
[1] = biological target: APP695-derived polypeptide carrying the Swedish mutant NLDA at the β secretase cleavage site (UniProt P05067); experiment: cell-based or functional assay
[2] = biological target: APP695-derived polypeptide having the modified sequence NFEV at the β secretase cleavage site (UniProt P05067); experiment: cell-based or functional assay

levels of Aβ (IP/Western blot of conditioned media of transfected HEK293T cells) (fold over wild-type KMDA) [1]: 15 and 20
levels of Aβ (IP/Western blot of conditioned media of transfected HEK293T cells) (fold over wild-type KMDA) [2]: 15 and 20
Substance: human β secretase (from UniProt P56817 46-501) (enzyme)

Reference: patent US20070101449A1
